Article PMC5883314, “Soluble expression of an amebic cysteine protease in the cytoplasm of Escherichia coli SHuffle Express cells and purification of active enzyme” (BMC Biotechnology, 2018)

Experiments:
[1] = target: T1, EhCP1 (Cysteine Protease 1 of Entamoeba histolytica) (Entamoeba histolytica, UniProt Q01957); assay: inhibition of purified recombinant enzyme, hydrolysis of Z-Arg-Arg-pNA and Z-Arg-Arg-AMC; format: biochemical
T1 construct: gene CP1; pro-mature polypeptide (Ile14 to Leu315), N-terminal hexahistidine tag

[2] = test system: N=C(N)NCCC[C@H](NC(=O)OCc1ccccc1)C(=O)N[C@@H](CCCNC(=N)N)C(=O)Nc1ccc([N+](=O)[O-])cc1; assay: purified protein
[3] = test system: Cc1cc(=O)oc2cc(NC(=O)[C@H](CCCNC(=N)N)NC(=O)[C@H](CCCNC(=N)N)NC(=O)OCc3ccccc3)ccc12; assay: purified protein

T1 sequence (Q01957 14-315): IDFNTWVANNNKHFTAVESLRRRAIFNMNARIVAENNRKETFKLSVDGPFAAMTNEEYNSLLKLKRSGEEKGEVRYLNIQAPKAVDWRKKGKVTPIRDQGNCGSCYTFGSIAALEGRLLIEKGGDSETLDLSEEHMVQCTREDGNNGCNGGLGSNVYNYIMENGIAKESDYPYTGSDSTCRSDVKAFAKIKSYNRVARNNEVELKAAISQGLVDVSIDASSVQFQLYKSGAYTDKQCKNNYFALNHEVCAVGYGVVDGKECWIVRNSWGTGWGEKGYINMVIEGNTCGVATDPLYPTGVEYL

Compound	IC50 [1] [nM]	Km [2] [µM]	Km [3] [µM]
CC(C)C[C@H](NC(=O)[C@H]1O[C@@H]1C(=O)O)C(=O)NCCCCN=C(N)N [E-64, L-trans-3-carboxyoxiran-2-carbonyl-L-leucylagmatine]	1000	–	–
EhCP1 (Cysteine Protease 1 of Entamoeba histolytica) (Entamoeba histolytica HM-1:IMSS)	–	57.1	6.7
